Test results taken from paper PMC3799859, “Sigma-1 Receptor Chaperone at the ER-Mitochondrion Interface Mediates the Mitochondrion-ER-Nucleus Signaling for Cellular Survival” (PLoS ONE, 2013).

Biological target: the molecule itself
Assay: non-reducing gel and blot of the purified protein; ΔIRE1-V5/His purified on a Ni column, non-reducing condition (without β-mercaptoethanol)

B1: ΔIRE1-V5/His (ER lumenal domain of human IRE1) (domain or fragment, UniProt O75460 19-443, looked up)
chain: IFGSTSTVTLPETLLFVSTLDGSLHAVSKRTGSIKWTLKEDPVLQVPTHVEEPAFLPDPNDGSLYTLGSKNNEGLTKLPFTIPELVQASPCRSSDGILYMGKKQDIWYVIDLLTGEKQQTLSSAFADSLCPSTSLLYLGRTEYTITMYDTKTRELRWNATYFDYAASLPEDDVDYKMSHFVSNGDGLVVTVDSESGDVLWIQNYASPVVAFYVWQREGLRKVMHINVAVETLRYLTFMSGEVGRITKWKYPFPKETEAKSKLTPTLYVGKYSTSLYASPSMVHEGVAVVPRGSTLPLLEGPQTDGVTIGDKGECVITPSTDVKFDPGLKSKNKLNYLRNYWLLIGHHETPLSASTKMLERFPNNLPKHRENVIPADSEKKSFEEVINLVDQTSENAPTTVSRDVEEKPAHAPARPEAPVDSMLKD
notes: human IRE1, lumenal domain (ΔIRE1), lacking the cytoplasmic domain; Most of the purified protein is a dimer under non-reducing conditions; a portion was pretreated with β-mercaptoethanol to keep it monomeric; source: CHO, transfected (pcDNA3.1); in lysate, or purified from the cell extract on Ni-NTA agarose; not shown: V5, C-terminal, kept; His, C-terminal, kept
  stoichiometry N: 2
